PMC10247859, “Replisome-cohesin interactions provided by the Tof1-Csm3 and Mrc1 cohesion establishment factors” (Chromosoma, 2023)

Columns and labels:
Conditions in all cases: both partners purified
[1] = target: T1, cohesin tetramer complex (Smc1-Smc3-Scc1-Scc3) (S. cerevisiae (budding yeast), UniProt P32908 1-1225; P47037 1-1230; Q12158 1-566; P40541 1-1150); assay: pull-down; cohesin tetramer (200-600 nM) held on Protein A dynabeads by anti-Pk antibody (Pk tag on Smc1); 200 nM prey, 30 °C, 5 min; 25 mM HEPES-KOH pH 7.6, 100 mM potassium glutamate, 10 mM magnesium acetate, 0.12% NP-40; SDS elution, Coomassie staining
T1 construct: Smc1, cohesin subunit, budding yeast; Smc3, cohesin subunit, budding yeast; Scc1, cohesin subunit, budding yeast; Scc3, cohesin subunit, budding yeast; also called cohesin complex; source: purified as previously described (Minamino et al. 2018): IgG agarose, 3C protease cleavage; copies: + + +
T1 sequence (P32908 whole entry, chain 1 of 3): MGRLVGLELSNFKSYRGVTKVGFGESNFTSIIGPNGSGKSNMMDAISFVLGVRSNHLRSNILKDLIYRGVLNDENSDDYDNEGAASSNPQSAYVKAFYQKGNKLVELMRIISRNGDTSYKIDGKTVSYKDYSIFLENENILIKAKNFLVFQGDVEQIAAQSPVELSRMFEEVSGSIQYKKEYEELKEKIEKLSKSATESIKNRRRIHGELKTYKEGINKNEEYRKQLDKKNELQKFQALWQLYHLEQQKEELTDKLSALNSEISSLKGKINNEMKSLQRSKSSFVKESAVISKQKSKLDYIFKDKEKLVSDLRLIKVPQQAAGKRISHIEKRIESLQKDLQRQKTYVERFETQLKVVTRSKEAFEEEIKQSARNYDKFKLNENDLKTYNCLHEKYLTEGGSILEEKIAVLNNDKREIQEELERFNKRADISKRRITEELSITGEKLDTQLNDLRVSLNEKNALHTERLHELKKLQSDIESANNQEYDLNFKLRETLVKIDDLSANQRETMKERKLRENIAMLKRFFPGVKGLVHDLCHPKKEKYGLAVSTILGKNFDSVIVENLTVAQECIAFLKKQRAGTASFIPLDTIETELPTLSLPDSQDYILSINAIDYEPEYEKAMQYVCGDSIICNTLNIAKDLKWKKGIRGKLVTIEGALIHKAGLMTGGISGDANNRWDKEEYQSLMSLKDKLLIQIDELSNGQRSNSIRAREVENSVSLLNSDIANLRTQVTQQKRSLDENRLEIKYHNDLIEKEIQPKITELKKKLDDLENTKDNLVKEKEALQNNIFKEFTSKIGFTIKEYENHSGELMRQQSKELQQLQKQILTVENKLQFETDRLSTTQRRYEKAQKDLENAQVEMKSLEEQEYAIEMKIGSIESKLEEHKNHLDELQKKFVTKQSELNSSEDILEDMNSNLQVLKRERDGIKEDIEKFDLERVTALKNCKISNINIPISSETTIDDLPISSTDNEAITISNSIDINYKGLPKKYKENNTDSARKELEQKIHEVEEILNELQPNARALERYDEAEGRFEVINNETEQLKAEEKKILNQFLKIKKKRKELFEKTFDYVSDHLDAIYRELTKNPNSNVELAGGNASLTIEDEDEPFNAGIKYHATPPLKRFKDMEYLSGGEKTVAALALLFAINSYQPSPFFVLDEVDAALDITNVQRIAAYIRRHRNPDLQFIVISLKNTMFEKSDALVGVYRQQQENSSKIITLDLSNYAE
T1 sequence (P47037 whole entry, chain 2 of 3): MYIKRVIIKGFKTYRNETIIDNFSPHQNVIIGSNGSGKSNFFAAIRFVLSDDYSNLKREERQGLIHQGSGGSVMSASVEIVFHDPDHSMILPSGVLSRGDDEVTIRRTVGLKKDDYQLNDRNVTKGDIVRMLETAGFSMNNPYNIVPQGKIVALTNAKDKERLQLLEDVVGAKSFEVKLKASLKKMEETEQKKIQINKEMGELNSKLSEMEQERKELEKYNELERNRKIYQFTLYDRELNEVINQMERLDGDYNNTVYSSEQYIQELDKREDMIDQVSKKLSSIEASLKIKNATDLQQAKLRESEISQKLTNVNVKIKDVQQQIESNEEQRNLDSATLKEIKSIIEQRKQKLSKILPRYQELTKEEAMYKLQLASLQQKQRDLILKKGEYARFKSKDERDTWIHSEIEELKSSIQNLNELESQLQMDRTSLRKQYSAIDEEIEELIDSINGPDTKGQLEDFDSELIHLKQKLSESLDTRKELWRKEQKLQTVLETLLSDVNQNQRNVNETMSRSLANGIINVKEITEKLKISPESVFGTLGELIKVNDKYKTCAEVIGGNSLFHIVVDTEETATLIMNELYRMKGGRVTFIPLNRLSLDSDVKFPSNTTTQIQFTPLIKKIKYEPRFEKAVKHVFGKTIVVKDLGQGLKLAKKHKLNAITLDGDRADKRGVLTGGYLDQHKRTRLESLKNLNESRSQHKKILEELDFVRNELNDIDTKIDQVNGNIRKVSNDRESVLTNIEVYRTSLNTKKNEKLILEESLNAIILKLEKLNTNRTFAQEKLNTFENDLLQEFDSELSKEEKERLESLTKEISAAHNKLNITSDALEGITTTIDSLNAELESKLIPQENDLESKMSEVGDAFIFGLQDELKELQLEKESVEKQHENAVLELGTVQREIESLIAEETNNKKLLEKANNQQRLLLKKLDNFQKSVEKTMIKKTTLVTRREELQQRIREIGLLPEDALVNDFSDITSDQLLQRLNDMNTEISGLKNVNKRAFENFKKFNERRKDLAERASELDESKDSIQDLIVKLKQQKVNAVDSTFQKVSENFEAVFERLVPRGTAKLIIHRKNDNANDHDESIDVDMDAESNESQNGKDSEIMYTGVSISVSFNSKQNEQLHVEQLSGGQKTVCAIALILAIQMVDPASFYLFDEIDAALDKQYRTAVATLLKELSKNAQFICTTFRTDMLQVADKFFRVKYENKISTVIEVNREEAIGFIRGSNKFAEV
T1 sequence (P40541 whole entry, chain 4 of 3): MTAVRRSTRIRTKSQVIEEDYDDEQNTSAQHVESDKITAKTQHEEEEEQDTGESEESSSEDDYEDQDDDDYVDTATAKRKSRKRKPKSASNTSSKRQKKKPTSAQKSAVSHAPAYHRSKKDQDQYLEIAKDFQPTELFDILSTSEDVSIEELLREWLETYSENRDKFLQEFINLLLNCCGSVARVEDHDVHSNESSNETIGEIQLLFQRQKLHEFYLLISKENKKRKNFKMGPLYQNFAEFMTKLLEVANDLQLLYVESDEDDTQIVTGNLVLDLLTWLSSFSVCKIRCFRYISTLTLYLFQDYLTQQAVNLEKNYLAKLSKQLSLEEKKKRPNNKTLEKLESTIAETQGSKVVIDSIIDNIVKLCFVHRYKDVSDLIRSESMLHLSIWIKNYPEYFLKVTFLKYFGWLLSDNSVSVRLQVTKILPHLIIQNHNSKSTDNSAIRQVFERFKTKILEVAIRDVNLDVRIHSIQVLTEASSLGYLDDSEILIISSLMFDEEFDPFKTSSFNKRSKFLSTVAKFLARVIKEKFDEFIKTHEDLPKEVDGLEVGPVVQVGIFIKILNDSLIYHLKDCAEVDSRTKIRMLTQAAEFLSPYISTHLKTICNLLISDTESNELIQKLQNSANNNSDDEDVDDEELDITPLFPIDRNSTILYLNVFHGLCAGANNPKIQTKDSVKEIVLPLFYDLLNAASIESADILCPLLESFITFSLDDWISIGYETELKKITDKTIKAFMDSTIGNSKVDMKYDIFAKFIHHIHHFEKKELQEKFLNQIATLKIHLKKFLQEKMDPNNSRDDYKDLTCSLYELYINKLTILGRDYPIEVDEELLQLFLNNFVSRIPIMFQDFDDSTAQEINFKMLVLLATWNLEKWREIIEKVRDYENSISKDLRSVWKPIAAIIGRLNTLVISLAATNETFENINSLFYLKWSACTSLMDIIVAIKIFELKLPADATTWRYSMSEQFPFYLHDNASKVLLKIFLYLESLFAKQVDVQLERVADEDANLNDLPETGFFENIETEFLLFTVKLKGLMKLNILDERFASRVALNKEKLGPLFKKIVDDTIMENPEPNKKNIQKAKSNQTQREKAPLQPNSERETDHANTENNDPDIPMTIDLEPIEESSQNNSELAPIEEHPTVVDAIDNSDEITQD

Smc1-Smc3 dimer = target: T2, Smc1-Smc3 dimer (S. cerevisiae (budding yeast), UniProt P32908 1-1225; P47037 1-1230); assay: pull-down; Tof1-Csm3 (200-600 nM) held on calmodulin dynabeads; cohesin tetramer, trimer or Smc1-Smc3 dimer as prey; interaction buffer with 100 mM potassium glutamate; Coomassie staining; benzonase or NaCl added where indicated
T2 construct: Smc1, cohesin subunit, budding yeast; Smc3, cohesin subunit, budding yeast; also called SMC dimer; SMC dimers (Smc1-Smc3); source: purified following the same protocol as cohesin tetramers (IgG agarose, 3C protease cleavage); not shown: Protein A, C-terminal, cleaved
T2 sequence (P32908 whole entry, chain 1 of 2): as the sequence (P32908 whole entry, chain 1 of 3) above
T2 sequence (P47037 whole entry, chain 2 of 2): as the sequence (P47037 whole entry, chain 2 of 3) above

[2] = target: T3, cohesin trimer (Smc1-Smc3-Scc1) (S. cerevisiae (budding yeast), UniProt P32908 1-1225; P47037 1-1230; Q12158 1-566); assay: as above
T3 construct: Smc1, cohesin subunit, budding yeast; Smc3, cohesin subunit, budding yeast; Scc1, cohesin subunit, budding yeast; source: purified following the same protocol as cohesin tetramers (IgG agarose, 3C protease cleavage); copies: + +
T3 sequence (P32908 whole entry, chain 1 of 2): as the sequence (P32908 whole entry, chain 1 of 3) above
T3 sequence (P47037 whole entry, chain 2 of 2): as the sequence (P47037 whole entry, chain 2 of 3) above

Measured: binding result

B1: Tof1-Csm3 complex (complex, S. cerevisiae (budding yeast))
chain 1: MSADLQQGTTNAADFSLTVLRARIALLATAIGGPDYTSQIDPPPYKLGDDCLACLKDLKRWFKLVDDQQKRWDVAMAVAEYRILTDDLLPILIDWENKCSLAAKLAKNNPDHEEFRNKAYYDKIALNCLQLLVLMTWPLIVTEQSSSNQITLYGELKKHQLVYKKTILSMESGKVLRAAIRLALDVIKIDRLSRTPRDNMVLKLVLNFFRNVIAIEPGEFTINTKKSMPKKGITSIDTLPPNVSMDDISLNTVISSFHKNKVFGFLLTLTSSLSKEFDQDFINIPLLEIMFYFTKDVNQELLFPRQFETGTHSKVVNKNESSSANNIVTSAGFELSKLLQKEHQMRKNVIKHTSARHSRFGGLLSIQTPDKTRLTVSGSQALVDEKIALQKLDDSKKWNKRIIKKHQSVAAEGLPNSLLNSQTGKAIFFTESNGKHFKEFINNFIDSGFNILLHSVTNYFTTEQDRMVTLEQVEYLLFFAWFVKYQLLRSKIDNSADIKQVSEALKEVTFILVSSLLRSAYDLKNWTVTHAGMIAFNELLNLVSRTKAAQEEDSTDIEFIVSRLFSDERIQLLSNLPKIGSKYSLQFMKSCIELTHSVLKVLEQYSDDKTLVIEGKSRRQKKFNISEGDITKLIEEENVDRDEALDILTSSLRSIEVNFQKVQANYMTEPVIETYINFLERFRELEDDSIKKVFSFFHRVFVQAKEQALLFRFDLIILLREMLSPDGLDRMSRSRKYVSQFSDYFLARLKKRLKKSPAWFVGLLFPPLHNSEVGFYQRYGEYNVLNNESMYAAPASQFKPIPDEEALPPSILLDMKYGVLVSTLLDDGKTELLDQLLKHITHTLDIFKSWLTVNVNAGKETVNPPNEYFTLTGVLNNDPIFKDKDYRALLLLIGYSIPRKINEPCFLPGTVEVSDLTVSCELVKKYLSTPFETPNGLPSSSYLLRVRSEKDSFSHNEQDGWEGDDDYDYNDPYIVPDDQILSKSDAAYFKDLDNNASDKLKGTKFSKGIARSKKKDKRKRRKGEAKTNLPMFGDQDDERPQTVRERHGVFSKEFISDSEDDEDLMNPIFFENETYMRWLLDKNNGQLTEDRYIQFAKFAAERMNNGGVVTGDYTSLFGGSIPSIESIRATESSSFAPDKSLISLASHVASEMSIFDVNNNNNNQLSDDDVNSESRNSLGSSQPSNSQNMFQSEVYSRKESTKRSLEASAADESDEDEEAIRLFGKKSRVVLSQGDSDD
chain 2: MDQDFDSLLLGFNDSDSVQKDPTVPNGLDGSVVDPTIADPTAITARKRRPQVKLTAEKLLSDKGLPYVLKNAHKRIRISSKKNSYDNLSNIIQFYQLWAHELFPKAKFKDFMKICQTVGKTDPVLREYRVSLFRDEMGMSFDVGTRETGQDLERQSPMVEEHVTSAEERPIVADSFAQDKRNVNNVDYDNDEDDDIYHLSYRNRRGRVLDERGNNETVLNNVVPPKEDLDALLKTFRVQGPVGLEENEKKLLLGWLDAHRKMEKGSMTEEDVQLIQSLEEWEMNDIEGQHTHYDLLPGGDEFGVDQDELDAMKEMGF
notes: Tof1, budding yeast; Csm3, budding yeast; Held on calmodulin dynabeads when used as bait; source: purified as previously described (Yeeles et al. 2017)
binds: all assays above
